Measured values published in US20240043568A1 (KEYMED BIOSCIENCES, published 2024).
Substitutions are numbered along the chain they refer to.

Tests used:
[1] = biological target: T1, recombinant human GPC3 protein (human, UniProt P51654 25-563); test: BLI (Octet), antibody on Protein A probe
T1 construct: also called human GPC3 full-length protein; recombinant GPC3 protein
Experimental: Using BLI technology (Octet), the antibody to be tested was captured on the Protein A probe. The binding capacity with human GPC3 protein (10 μg/ml as the initial concentration, 2-fold gradient, a total of 5 concentration points) was detected. The affinity constant KD was obtained according to the association and dissociation rates. The 49G8 humanized antibody binds to the recombinant GPC3 protein with high affinity. The affinity data is seen in Table 6.

[2] = biological target: T1, recombinant human GPC3 protein; test: SPR (Biacore T200), antibody on Protein A chip, GPC3 as analyte
Experimental: (§1) Humanized antibodies with higher affinity were selected and compared for binding to human and cynomolgus monkey GPC3. The humanized antibody h49G8VHv6VKv3 was captured by the Protein A chip (GE healthcare). The recombinant proteins of human and cynomolgus monkey GPC3 diluted in gradient (5 μg/ml as the initial concentration, 2-fold gradient, 5 concentration points in total) were flowed through the chip at a flow rate of 30 μL/min, with a binding time of 150 seconds and dissociation time of 600 seconds. The kinetic constant was fitted using Biacore T200 evaluation software with a Langmuir 1:1 kinetics model. The humanized antibody h49G8VHv6VKv3 binds to human and cynomolgus monkey GPC3 with high affinity. […] The affinity data is seen in Table 7.

[3] = biological target: T2, recombinant cynomolgus monkey GPC3 full-length protein (cynomolgus monkey, UniProt A0A2K5VK50 24-558); test: as above
Experimental: as §1

human GPC3 on cells = biological target: T3, human GPC3 on cells (human, UniProt P51654 25-563); test: flow cytometry on human GPC3-CHO stably-transfected cells, MFI
T3 construct: whole, on cells; One molecule is used for both CHO-hGPC3 transfectants and GPC3+ HepG2 cells; The assay field names the cell; also called CHO-hGPC3 (clone 2B10); CHO-human GPC3

[4] = biological target: T1, recombinant human GPC3 protein; test: ELISA on coated recombinant human GPC3 protein, OD450 [panel Recombinant human GPC3 protein]
[5] = biological target: T2, recombinant cynomolgus monkey GPC3 …; test: ELISA on coated recombinant cynomolgus monkey GPC3 protein, OD450 [panel Recombinant cynomolgus monkey GPC3 protein]
human CD3 on T cells = biological target: T4, human CD3 on T cells (human, UniProt P07766 23-207); test: flow cytometry, Jurkat cells
T4 construct: whole, on cells; The target is the native CD3 complex on cells; The recombinant antigen used elsewhere is the εγ heterodimer; also called CD3 on Jurkat cells; CD3 on human peripheral blood CD4+ and CD8+ T cells
Experimental: Jurkat cells in the logarithmic growth phase were taken, blocked with 3% BSA for 30 min, and added to 96-well U-plate at 5×10⁴ cells per well. The supernatant was discarded after centrifugation. 50 μL of gradient diluted antibody was added (antibody concentration: from 30 ng/mL, 3-fold dilution for 5 gradients) per well, and incubated at 4° C. for 1 hour. […] After washing, 50 μL PBS was added per well to perform resuspending for FACS (iQue, intellicyt) assay (the results are seen in FIG. 13, and Table 10).

[6] = biological target: T5, human CD3εγ-Fc heterodimer (human); test: ELISA, coated human CD3εγ protein
T5 construct: also called human CD3 εγ protein; recombinant CD3 εγ protein
T5 chain 1: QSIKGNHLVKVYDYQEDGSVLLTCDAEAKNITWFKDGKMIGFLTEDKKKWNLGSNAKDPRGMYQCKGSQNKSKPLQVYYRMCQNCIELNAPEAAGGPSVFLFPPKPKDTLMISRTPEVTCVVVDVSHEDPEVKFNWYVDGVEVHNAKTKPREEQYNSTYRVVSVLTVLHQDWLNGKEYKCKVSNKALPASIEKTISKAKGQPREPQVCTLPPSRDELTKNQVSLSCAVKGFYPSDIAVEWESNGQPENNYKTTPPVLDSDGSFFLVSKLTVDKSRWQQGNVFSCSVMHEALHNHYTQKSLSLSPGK
T5 chain 2: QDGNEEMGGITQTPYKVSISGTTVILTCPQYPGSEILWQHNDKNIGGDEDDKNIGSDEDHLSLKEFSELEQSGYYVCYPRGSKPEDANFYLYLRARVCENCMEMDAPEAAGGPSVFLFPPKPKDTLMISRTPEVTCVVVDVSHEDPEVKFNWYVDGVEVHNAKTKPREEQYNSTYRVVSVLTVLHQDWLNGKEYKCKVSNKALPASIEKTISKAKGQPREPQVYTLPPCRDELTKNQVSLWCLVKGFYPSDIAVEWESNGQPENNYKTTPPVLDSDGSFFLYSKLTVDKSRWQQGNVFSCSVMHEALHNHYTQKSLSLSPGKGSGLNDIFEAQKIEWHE
Experimental: Human CD3 εγ protein was coated overnight at 4° C. After blocking with 2% skim milk, different dilutions of CD3 antibodies was added to each well and incubated for 1 hour. The secondary antibody HPR-labeled goat anti-human IgG Fc was added. After being developed by the TMB solution, the reaction was stopped with the concentrated sulfuric acid, and the absorbance was read at 450 nm (the results are shown in FIG. 12 and Table 8).

[7] = biological target: T5, human CD3εγ-Fc heterodimer; test: ELISA on coated human CD3εγ protein, A450 [panel Human CD3 εγ dimer]
Experimental: (§2) Human CD3 εγ protein and monkey CD3 εγ protein were coated separately overnight at 4° C. After blocking with 2% skim milk, different dilutions of CD3 antibody were added to each well and incubated for 1 hour. The secondary antibody HPR-labeled goat anti-human IgG Fc was added. After being developed by the TMB solution. The reaction was stopped with the concentrated sulfuric acid and the absorbance was read at 450 nm.

[8] = biological target: T6, cynomolgus monkey CD3εγ-Fc heterodimer (cynomolgus monkey); test: ELISA on coated monkey CD3εγ protein, A450 [panel Monkey CD3 εγ dimer]
T6 construct: also called monkey CD3 εγ protein
T6 chain 1: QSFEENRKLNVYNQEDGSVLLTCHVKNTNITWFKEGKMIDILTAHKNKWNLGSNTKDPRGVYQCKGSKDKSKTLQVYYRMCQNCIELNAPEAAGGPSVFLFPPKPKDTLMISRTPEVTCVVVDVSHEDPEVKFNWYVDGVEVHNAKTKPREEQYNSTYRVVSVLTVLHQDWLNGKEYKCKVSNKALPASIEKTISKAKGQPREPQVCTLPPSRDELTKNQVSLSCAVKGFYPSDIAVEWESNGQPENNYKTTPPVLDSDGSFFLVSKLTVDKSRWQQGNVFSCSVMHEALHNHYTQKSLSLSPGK
T6 chain 2: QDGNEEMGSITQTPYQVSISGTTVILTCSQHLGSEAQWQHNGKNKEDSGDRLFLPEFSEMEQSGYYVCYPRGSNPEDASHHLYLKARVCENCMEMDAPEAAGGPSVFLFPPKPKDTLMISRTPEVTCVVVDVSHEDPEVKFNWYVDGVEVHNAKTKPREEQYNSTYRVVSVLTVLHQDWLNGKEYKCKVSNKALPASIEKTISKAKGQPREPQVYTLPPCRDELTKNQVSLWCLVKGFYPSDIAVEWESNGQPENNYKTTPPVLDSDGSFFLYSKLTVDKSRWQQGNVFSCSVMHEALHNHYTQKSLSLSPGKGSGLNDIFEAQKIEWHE
Experimental: as §2

B1: h49G8VHv6VKv3 (antibody, V domains shown)
VH: QVQLVQSGAEVKKPGSSVKVSCKASGYTFADYEIHWVRQAPGQGLEWMGAIHPGSGGTAYAQKFQGRVTLTADESSTTAYMELSSLRSEDTAVYYCTRYYSFAYWGQGTLVTVSS
VL: DVVMTQSPLSLPVTPGEPASISCRSSQSIVHSNGNTYLEWYLQKPGQSPQLLIYKVSNRFSGVPDRFSGSGSGTDFTLKISRVEAEDVGVYFCLQVTHVPLTFGQGTKLEIK
notes: Humanized 49G8
Kd [1]: 1.42 nM
koff [1]: 0.000134 s⁻¹
kon [1]: 94800 M⁻¹ s⁻¹
Kd [2]: 1.39 nM
koff [2]: 0.000351 s⁻¹
kon [2]: 253000 M⁻¹ s⁻¹
Kd [3]: 2.1 nM
koff [3]: 0.00025 s⁻¹
kon [3]: 119000 M⁻¹ s⁻¹
EC50 (read off the curve) (human GPC3 on cells): ~2 nM
EC50 (read off the curve) [4]: ~0.03 nM
EC50 (read off the curve) [5]: ~0.03 nM

B2: h49G8VHv6VKv6 (antibody, V domains shown)
VH: B1 VH
VL: B1 VL with G34A
notes: Humanized 49G8
Kd [1]: 2.38 nM
koff [1]: 0.00022 s⁻¹
kon [1]: 92400 M⁻¹ s⁻¹
EC50 (read off the curve) (human GPC3 on cells): ~2 nM
EC50 (read off the curve) [4]: ~0.03 nM
EC50 (read off the curve) [5]: ~0.03 nM

B3: aCD3-hVH9/VL2 (antibody, V domains shown)
VH: EVQLVESGGGLVQPGGSLRLSCAASGFTFNTYAMNWVRKAPGKGLEWVGRIRSKYNNYATYYADSVKDRFTISRDDSKNSLYLQMNSLKTEDTAVYYCVRHGNFGNSYVSWFAYWGQGTLVTVSS
VL: QAVVTQEPSLTVSPGGTVTLTCRSSTGAVTTSNYANWVQEKPGQAPRGLIGGTNKRAPWTPARFSGSLLGGKAALTLSGAQPEDEAEYYCALWYSNLWVFGGGTKLTVL
notes: Human IgG4, lambda
EC50 (human CD3 on T cells): 25 nM
EC50 [6]: 0.44 nM
EC50 (read off the curve) [7]: ~0.04 ng/mL
EC50 (read off the curve) [8]: ~0.04 ng/mL

B4: aCD3-hVH9/VL5 (antibody, V domains shown)
VH: B3 VH
VL: B3 VL with L77I, S78T, P82A, A91V
notes: Human IgG4, lambda
EC50 (human CD3 on T cells): 20 nM
EC50 [6]: 0.42 nM
EC50 (read off the curve) [7]: ~0.05 ng/mL
EC50 (read off the curve) [8]: ~0.05 ng/mL

B5: aCD3-hVH8/VL1 (antibody, V domains shown)
VH: B3 VH with V99A
VL: B3 VL with E40Q
notes: Human IgG4, lambda
EC50 (human CD3 on T cells): 15 nM
EC50 [6]: 0.65 nM

B6: aCD3-hVH1/VL5 (antibody, V domains shown)
VH: B3 VH with K39Q, G49S, S80T, K89R, T90A
VL: B3 VL with L77I, S78T, P82A, A91V
notes: Humanized CD3 antibody with human IgG4 CH1-CH3 and a lambda light chain constant region
EC50 (human CD3 on T cells): 10 nM
EC50 [6]: 0.6 nM

B7: aCD3-hVH9/VL1 (antibody, V domains shown)
VH: B3 VH
VL: B3 VL with E40Q
notes: Human IgG4, lambda
EC50 (human CD3 on T cells): 7 nM
EC50 [6]: 0.49 nM
